One block for each binder: values may come before it.
How the values were obtained:
[1] = biological target: T1, GAL4 DBD fused with C-terminal fragment (aa 595-918) of wild-type AR (human, UniProt P04386 1-147 (Saccharomyces cerevisiae entry)); test: yeast two-hybrid, 10 nM DHT
T1 construct: range 1-147; also called pAS2-AR; pAS2-wtAR
Description: (§1) (B) The domains of ARA70 responsible for AR interaction by yeast two-hybrid assay. The interaction of different domains/motifs of ARA70 with wtAR assayed by plate nutritional selection in the yeast Y190 strain. […] Data were reproducible in two independent transformations.

[2] = biological target: T1, GAL4 DBD fused with C-terminal fragment …; test: yeast two-hybrid, plate nutritional selection
Description: as §1

- binding result [1]: no binding
B1: GALAD70-N1: GAL4AD fused ARA70 aa 1-175 (other, not shown: large carriers)
chain: MNTFQDQSGSSSNREPLLRCSDARRDLELAIGGVLRAEQQIKDNLREVKAQIHSCISRHLECLRSREVWLYEQVDLIYQLKEETLQQQAQQLYSLLGQFNCLTHQLECTQNKDLANQVSVCLERLGSLTLKPEDSTVLLFEADTITLRQTITTFGSLKTIQIPEHLMAHASSANI
notes: also called ARA70-N1

- binding result [1]: no binding
B3: GALAD70-C: GAL4AD fused ARA70 aa 383-614 (other, not shown: large carriers)
chain: SMVTEDWLVQNHQDPCKVEEVCRANEPCTSFAECVCDENCEKEALYKWLLKKEGKDKNGMPVEPKPEPEKHKDSLNMWLCPRKEVIEQTKAPKAMTPSRIADSFQVIKNSPLSEWLIRPPYKEGSPKEVPGTEDRAGKQKFKSPMNTSWCSFNTADWVLPGKKMGNLSQLSSGEDKWLLRKKAQEVLLNSPLQEEHNFPPDHYGLPAVCDLFACMQLKVDKEKWLYRTPLQM
notes: also called ARA70-C (aa 383-614)

- binding result [1]: no binding
Binder: QQLYSLLGQF (peptide, not shown: large carriers, also called ARA70 LXXLL (aa 90 to 99)) [GALAD70-LXXLL: GAL4AD fused ARA70 aa 90-99]

Continued, binder first:

B2: GALAD70-N2: GAL4AD fused ARA70 aa 176-401 (other, not shown: large carriers)
chain: GPFLEKRGCISMPEQKSASGIVAVPFSEWLLGSKPASGYQAPYIPSTDPQDWLTQKQTLENSQTSSRACNFFNNVGGNLKGLENWLLKSEKSSYQKCNSHSTTSSFSIEMEKVGDQELPDQDEMDLSDWLVTPQESHKLRKPENGSRETSEKFKLLFQSYNVNDWLVKTDSCTNCQGNQPKGVEIENLGNLKCLNDHLEAKKPLSTPSMVTEDWLVQNHQDPCKVE
notes: also called ARA70-N2 peptide (aa 176 to 401); ARA70-N2
- binding result [2]: binds

B4: GALAD70-N: GAL4AD fused ARA70 aa 1-401 (other, not shown: large carriers)
chain: MNTFQDQSGSSSNREPLLRCSDARRDLELAIGGVLRAEQQIKDNLREVKAQIHSCISRHLECLRSREVWLYEQVDLIYQLKEETLQQQAQQLYSLLGQFNCLTHQLECTQNKDLANQVSVCLERLGSLTLKPEDSTVLLFEADTITLRQTITTFGSLKTIQIPEHLMAHASSANIGPFLEKRGCISMPEQKSASGIVAVPFSEWLLGSKPASGYQAPYIPSTDPQDWLTQKQTLENSQTSSRACNFFNNVGGNLKGLENWLLKSEKSSYQKCNSHSTTSSFSIEMEKVGDQELPDQDEMDLSDWLVTPQESHKLRKPENGSRETSEKFKLLFQSYNVNDWLVKTDSCTNCQGNQPKGVEIENLGNLKCLNDHLEAKKPLSTPSMVTEDWLVQNHQDPCKVE
notes: the legend says GAL4AD fusions; also called ARA70N peptide (aa 1 to 401); ARA70-N
- binding result [2]: binds
